Tests used:
Assay in all cases: cell-based or functional assay
[1] = molecular target: HIV-1 Env of pseudovirus 0260.v5.c36 (HIV-1)
[2] = molecular target: HIV-1 Env of pseudovirus 1012_11_TC21_3257 (HIV-1)
[3] = molecular target: HIV-1 Env of pseudovirus 1056_10_TA11_1826 (HIV-1)
[4] = molecular target: HIV-1 Env of pseudovirus 928-28 (HIV-1)
[5] = molecular target: HIV-1 Env of pseudovirus CAAN5342.A2 (HIV-1)
[6] = molecular target: HIV-1 Env of pseudovirus CAP210.2.00.E8 (HIV-1)
[7] = molecular target: HIV-1 Env of pseudovirus CNE20 (HIV-1)
[8] = molecular target: HIV-1 Env of pseudovirus CNE53 (HIV-1)
[9] = molecular target: HIV-1 Env of pseudovirus Ce0393_C3 (HIV-1)
[10] = molecular target: HIV-1 Env of pseudovirus Ce0682_E4 (HIV-1)
[11] = molecular target: HIV-1 Env of pseudovirus Ce1176_A3 (HIV-1)
[12] = molecular target: HIV-1 Env of pseudovirus Ce2010_F5 (HIV-1)
[13] = molecular target: HIV-1 Env of pseudovirus Ce703010054_2A2 (HIV-1)
[14] = molecular target: HIV-1 Env of pseudovirus Du156.12 (HIV-1)
[15] = molecular target: HIV-1 Env of pseudovirus Du422.1 (HIV-1)
[16] = molecular target: HIV-1 Env of pseudovirus HIV-001428-2.42 (HIV-1)
[17] = molecular target: HIV-1 Env of pseudovirus MS208.A1 (HIV-1)
[18] = molecular target: HIV-1 Env of pseudovirus Q461.e2 (HIV-1)
[19] = molecular target: HIV-1 Env of pseudovirus Q842.d12 (HIV-1)
[20] = molecular target: HIV-1 Env of pseudovirus ZM109F.PB4 (HIV-1)
[21] = molecular target: HIV-1 Env of pseudovirus ZM214M.PL15 (HIV-1)
[22] = molecular target: HIV-1 Env of pseudovirus ZM233M.PB6 (HIV-1)
[23] = molecular target: HIV-1 Env of pseudovirus ZM249M.PL1 (HIV-1)
[24] = molecular target: HIV-1 Env of pseudovirus ZM53M.PB12 (HIV-1)

Substance 10-1074 (antibody) has an IC50, titer in TZM.bl cells [1] of 0.099 µg/mL, an IC80, titer in TZM.bl cells [1] of 0.16 µg/mL and an IC50, titer in TZM.bl cells [2] of 0.008 µg/mL. It also gave an IC80, titer in TZM.bl cells [2] of 0.059 µg/mL, an IC50, titer in TZM.bl cells [3] of 0.038 µg/mL and an IC80, titer in TZM.bl cells [3] of 0.272 µg/mL. It also gave an IC50, titer in TZM.bl cells [4] of 0.847 µg/mL, an IC80, titer in TZM.bl cells [4] of 4.7 µg/mL and an IC50, titer in TZM.bl cells [5] of 0.007 µg/mL. The IC80, titer in TZM.bl cells [5] was 0.036 µg/mL, the IC50, titer in TZM.bl cells [6] was > 50 µg/mL and the IC80, titer in TZM.bl cells [6] was > 50 µg/mL. For the same substance, the IC50, titer in TZM.bl cells [7] was < 0.001 µg/mL, the IC80, titer in TZM.bl cells [7] was 0.005 µg/mL and the IC50, titer in TZM.bl cells [8] was 0.039 µg/mL. For the same substance, the IC80, titer in TZM.bl cells [8] was 0.141 µg/mL, the IC50, titer in TZM.bl cells [9] was > 50 µg/mL and the IC80, titer in TZM.bl cells [9] was > 50 µg/mL. For the same substance, the IC50, titer in TZM.bl cells [10] was > 50 µg/mL, the IC80, titer in TZM.bl cells [10] was > 50 µg/mL and the IC50, titer in TZM.bl cells [11] was 0.019 µg/mL. For the same substance, the IC80, titer in TZM.bl cells [11] was 0.07 µg/mL, the IC50, titer in TZM.bl cells [12] was > 50 µg/mL and the IC80, titer in TZM.bl cells [12] was > 50 µg/mL. The IC50, titer in TZM.bl cells [13] was > 50 µg/mL, the IC80, titer in TZM.bl cells [13] was > 50 µg/mL and the IC50, titer in TZM.bl cells [14] was 0.015 µg/mL. For the same substance, the IC80, titer in TZM.bl cells [14] was 0.076 µg/mL, the IC50, titer in TZM.bl cells [15] was 0.045 µg/mL and the IC80, titer in TZM.bl cells [15] was 0.166 µg/mL. The IC50, titer in TZM.bl cells [16] was 0.044 µg/mL, the IC80, titer in TZM.bl cells [16] was 0.261 µg/mL and the IC50, titer in TZM.bl cells [17] was > 50 µg/mL. The IC80, titer in TZM.bl cells [17] was > 50 µg/mL, the IC50, titer in TZM.bl cells [18] was > 50 µg/mL and the IC80, titer in TZM.bl cells [18] was > 50 µg/mL. The IC50, titer in TZM.bl cells [19] was > 50 µg/mL, the IC80, titer in TZM.bl cells [19] was > 50 µg/mL and the IC50, titer in TZM.bl cells [20] was > 50 µg/mL. The IC80, titer in TZM.bl cells [20] was > 50 µg/mL, the IC50, titer in TZM.bl cells [21] was 0.174 µg/mL and the IC80, titer in TZM.bl cells [21] was 2.37 µg/mL. The IC50, titer in TZM.bl cells [22] was 0.06 µg/mL, the IC80, titer in TZM.bl cells [22] was 0.349 µg/mL and the IC50, titer in TZM.bl cells [23] was > 50 µg/mL. The IC80, titer in TZM.bl cells [23] was > 50 µg/mL, the IC50, titer in TZM.bl cells [24] was > 50 µg/mL and the IC80, titer in TZM.bl cells [24] was > 50 µg/mL.

In the case of N49P9.1 (antibody), the IC50 [2] is reported as 0.382 µg/mL, the IC80 [2] is reported as 1.45 µg/mL and the MPI [2] is reported as 100. The IC50 [3] was 0.617 µg/mL, the IC80 [3] was 3.03 µg/mL and the MPI [3] was 100. It also gave an IC50 [5] of 2.16 µg/mL, an IC80 [5] of 8 µg/mL and an MPI [5] of 99. For the same substance, the IC50 [6] was > 50 µg/mL, the IC80 [6] was > 50 µg/mL and the MPI [6] was 2. For the same substance, the IC50 [7] was 1.51 µg/mL, the IC80 [7] was 16.4 µg/mL and the MPI [7] was 90. For the same substance, the IC50 [8] was 0.14 µg/mL, the IC80 [8] was 0.647 µg/mL and the MPI [8] was 99. It also gave an IC50 [9] of 0.284 µg/mL, an IC80 [9] of 1.22 µg/mL and an MPI [9] of 100. The IC50 [10] was 0.076 µg/mL, the IC80 [10] was 0.264 µg/mL and the MPI [10] was 100. It also gave an IC50 [11] of 0.44 µg/mL, an IC80 [11] of 0.998 µg/mL and an MPI [11] of 100. It also gave an IC50 [12] of 0.12 µg/mL, an IC80 [12] of 0.38 µg/mL and an MPI [12] of 100. For the same substance, the IC50 [13] was 0.433 µg/mL, the IC80 [13] was 3.18 µg/mL and the MPI [13] was 96. For the same substance, the IC50 [14] was 0.066 µg/mL, the IC80 [14] was 0.252 µg/mL and the MPI [14] was 100. The IC50 [15] was > 50 µg/mL, the IC80 [15] was > 50 µg/mL and the MPI [15] was 17. The IC50 [16] was 0.037 µg/mL, the IC80 [16] was 0.12 µg/mL and the MPI [16] was 99. The IC50 [17] was 0.082 µg/mL, the IC80 [17] was 0.248 µg/mL and the MPI [17] was 100. For the same substance, the IC50 [18] was 0.363 µg/mL, the IC80 [18] was 1.15 µg/mL and the MPI [18] was 100. The IC50 [19] was 0.027 µg/mL, the IC80 [19] was 0.075 µg/mL and the MPI [19] was 100. For the same substance, the IC50 [20] was 0.116 µg/mL, the IC80 [20] was 0.497 µg/mL and the MPI [20] was 95. For the same substance, the IC50 [21] was 0.561 µg/mL, the IC80 [21] was 2.96 µg/mL and the MPI [21] was 100. For the same substance, the IC50 [22] was > 50 µg/mL, the IC80 [22] was > 50 µg/mL and the MPI [22] was 6. For the same substance, the IC50 [23] was 0.206 µg/mL, the IC80 [23] was 1.92 µg/mL and the MPI [23] was 95. It also gave an IC50 [24] of 0.447 µg/mL, an IC80 [24] of 1.29 µg/mL and an MPI [24] of 100.

N49P19 (antibody) showed an IC50 [2] of 0.204 µg/mL, an IC80 [2] of 0.895 µg/mL and an MPI [2] of 100. For the same substance, the IC50 [3] was 0.925 µg/mL, the IC80 [3] was 3.15 µg/mL and the MPI [3] was 100. The IC50 [5] was 1.24 µg/mL, the IC80 [5] was 4.4 µg/mL and the MPI [5] was 100. The IC50 [6] was > 50 µg/mL, the IC80 [6] was > 50 µg/mL and the MPI [6] was 0. For the same substance, the IC50 [7] was 0.124 µg/mL, the IC80 [7] was 0.817 µg/mL and the MPI [7] was 99. For the same substance, the IC50 [8] was 1.5 µg/mL, the IC80 [8] was > 50 µg/mL and the MPI [8] was 78. The IC50 [9] was > 50 µg/mL, the IC80 [9] was > 50 µg/mL and the MPI [9] was 31. The IC50 [10] was 0.607 µg/mL, the IC80 [10] was 2.32 µg/mL and the MPI [10] was 98. It also gave an IC50 [11] of 1.57 µg/mL, an IC80 [11] of 9.84 µg/mL and an MPI [11] of 99. For the same substance, the IC50 [12] was 7.66 µg/mL, the IC80 [12] was 45.4 µg/mL and the MPI [12] was 82. The IC50 [13] was > 50 µg/mL, the IC80 [13] was > 50 µg/mL and the MPI [13] was 0. It also gave an IC50 [14] of 2.17 µg/mL, an IC80 [14] of 17 µg/mL and an MPI [14] of 87. The IC50 [15] was > 50 µg/mL, the IC80 [15] was > 50 µg/mL and the MPI [15] was 30. The IC50 [16] was > 50 µg/mL, the IC80 [16] was > 50 µg/mL and the MPI [16] was 44. The IC50 [17] was 0.501 µg/mL, the IC80 [17] was 1.99 µg/mL and the MPI [17] was 99. For the same substance, the IC50 [18] was 0.774 µg/mL, the IC80 [18] was 4.05 µg/mL and the MPI [18] was 100. For the same substance, the IC50 [19] was 0.182 µg/mL, the IC80 [19] was 0.601 µg/mL and the MPI [19] was 100. The IC50 [20] was 0.282 µg/mL, the IC80 [20] was 2.66 µg/mL and the MPI [20] was 92. For the same substance, the IC50 [21] was 1.85 µg/mL, the IC80 [21] was 14.8 µg/mL and the MPI [21] was 98. For the same substance, the IC50 [22] was > 50 µg/mL, the IC80 [22] was > 50 µg/mL and the MPI [22] was 4. For the same substance, the IC50 [23] was > 50 µg/mL, the IC80 [23] was > 50 µg/mL and the MPI [23] was 33. For the same substance, the IC50 [24] was 1.19 µg/mL, the IC80 [24] was 4.14 µg/mL and the MPI [24] was 100.
